The results in this text go back to article doi:10.1101/2023.05.17.541096 (bioRxiv, 2023).

This experiment addresses T1, human FIGNL1ΔN (FIGNL1 without the N-terminal 284 aa) (human, UniProt Q6PIW4 285-674).
T1 sequence: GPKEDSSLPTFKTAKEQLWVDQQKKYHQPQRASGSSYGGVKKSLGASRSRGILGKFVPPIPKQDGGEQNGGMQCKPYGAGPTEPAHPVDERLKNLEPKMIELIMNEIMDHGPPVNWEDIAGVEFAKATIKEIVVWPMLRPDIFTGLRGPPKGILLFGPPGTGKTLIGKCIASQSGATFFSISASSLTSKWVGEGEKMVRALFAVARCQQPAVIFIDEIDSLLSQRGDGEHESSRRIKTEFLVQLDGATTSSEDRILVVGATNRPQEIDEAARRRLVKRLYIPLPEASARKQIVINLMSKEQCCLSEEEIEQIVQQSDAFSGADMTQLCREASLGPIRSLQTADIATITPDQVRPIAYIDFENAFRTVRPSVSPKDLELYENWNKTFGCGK
Briefly: native gel or EMSA. In general terms: A gel shift assay detects complexes by their altered migration in electrophoresis.

B1: human RAD51 (natural protein)
chain: MAMQMQLEANADTSVEEESFGPQPISRLEQCGINANDVKKLEEAGFHTVEAVAYAPKKELINIKGISEAKADKILAEAAKLVPMGFTTATEFHQRRSEIIQITTGSKELDKLLQGGIETGSITEMFGEFRTGKTQICHTLAVTCQLPIDRGGGEGKAMYIDTEGTFRPERLLAVAERYGLSGSDVLDNVAYARAFNTDHQTQLLYQASAMMVESRYALLIVDSATALYRTDYSGRGELSARQMHLARFLRMLLRLADEFGVAVVITNQVVAQVDGAAMFAADPKKPIGGNIIAHASTTRLYLRKGRGETRICKIYDSPCLPEAEAMFAINADGVGDAKD
Turning to B1, the binding result was “binds”.
